Experimental data reported in article PMC5669500, “Scaffolding the cup-shaped double membrane in autophagy” (PLoS Computational Biology, 2017).
Residue numbers refer to the chain shown, from its start.

Columns and labels:
Assay in all cases: pull-down; 20 μg GST-Atg13 (351–458) immobilised on 30 μL Glutathione Sepharose 4B; Atg17-Atg31-Atg29 complex at 10 μM; 4°C, 1 hour; 20 mM Tris pH 8, 150 mM NaCl, 0.1 mM TCEP; 3 washes; SDS-PAGE
Conditions in all cases: both partners purified
[1] = molecular target: T1, Atg17-Atg31-Atg29 complex with Atg17 mutant M3 (K8D/R14D/K249D) (Saccharomyces cerevisiae, UniProt Q06410 1-417; Q12421 1-196; Q12092 1-213, K8D | R14D | K249D)
T1 construct: Atg17, Saccharomyces cerevisiae; Atg31, Saccharomyces cerevisiae; Atg29, Saccharomyces cerevisiae; a TEV cleavage site follows the His6 tag; Mutations introduced into the Atg17-Atg31-Atg29 construct by quick-change mutagenesis; source: E. coli BL21 (DE3), co-expressed from pST39, purified (Ni-NTA, Superose 6); copies: 2 + +
T1 sequence (looked up) 1: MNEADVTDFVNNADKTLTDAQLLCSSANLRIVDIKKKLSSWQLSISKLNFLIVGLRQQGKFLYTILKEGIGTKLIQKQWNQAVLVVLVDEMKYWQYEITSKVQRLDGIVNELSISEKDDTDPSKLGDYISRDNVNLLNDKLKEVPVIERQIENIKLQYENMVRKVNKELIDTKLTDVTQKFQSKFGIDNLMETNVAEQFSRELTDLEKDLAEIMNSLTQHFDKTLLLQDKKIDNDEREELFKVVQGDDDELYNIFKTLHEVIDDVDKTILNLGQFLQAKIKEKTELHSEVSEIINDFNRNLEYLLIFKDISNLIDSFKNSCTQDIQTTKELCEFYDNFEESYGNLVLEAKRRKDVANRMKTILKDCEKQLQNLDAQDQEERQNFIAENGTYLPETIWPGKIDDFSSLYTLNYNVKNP
T1 sequence (looked up) 2: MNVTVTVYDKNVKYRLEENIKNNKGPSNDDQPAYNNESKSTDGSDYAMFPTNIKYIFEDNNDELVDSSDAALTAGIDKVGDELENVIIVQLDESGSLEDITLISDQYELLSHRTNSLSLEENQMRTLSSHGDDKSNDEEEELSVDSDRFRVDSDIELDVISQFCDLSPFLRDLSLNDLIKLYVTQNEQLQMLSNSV
T1 sequence (looked up) 3: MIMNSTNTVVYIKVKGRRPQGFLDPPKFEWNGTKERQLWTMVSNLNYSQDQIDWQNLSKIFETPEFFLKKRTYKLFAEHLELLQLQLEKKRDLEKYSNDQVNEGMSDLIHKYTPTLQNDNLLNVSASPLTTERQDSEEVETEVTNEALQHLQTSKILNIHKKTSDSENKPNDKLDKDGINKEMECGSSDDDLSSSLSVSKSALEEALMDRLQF

[2] = molecular target: T2, Atg17-Atg31-Atg29 complex with Atg17 mutant M2 (K318D/K329D/Y93E/W94E) (Saccharomyces cerevisiae, UniProt Q06410 1-417; Q12421 1-196; Q12092 1-213, K318D | K329D | Y93E | W94E)
T2 construct: Atg17, Saccharomyces cerevisiae; Atg31, Saccharomyces cerevisiae; Atg29, Saccharomyces cerevisiae; a TEV cleavage site follows the His6 tag; Mutations introduced into the Atg17-Atg31-Atg29 construct by quick-change mutagenesis; source: E. coli BL21 (DE3), co-expressed from pST39, purified (Ni-NTA, Superose 6); copies: 2 + +
T2 sequence (looked up) 1: T1 sequence (looked up) 1 with D8K, D14R, Y93E, W94E, D249K, K318D, K329D
T2 sequence (looked up) 2: T1 sequence (looked up) 2
T2 sequence (looked up) 3: T1 sequence (looked up) 3

[3] = molecular target: T3, Atg17-Atg31-Atg29 complex, wild type (Saccharomyces cerevisiae, UniProt Q06410 1-417; Q12421 1-196; Q12092 1-213)
T3 construct: Atg17, Saccharomyces cerevisiae; Atg31, Saccharomyces cerevisiae; Atg29, Saccharomyces cerevisiae; a TEV cleavage site follows the His6 tag; Atg17 is described as a dimer; cleavage of the His6 tag by TEV is not mentioned; also called recombinant ternary complex; Atg17-Atg31-Atg29 subcomplex of Atg1; source: E. coli BL21 (DE3), co-expressed from pST39, purified (Ni-NTA, Superose 6); copies: 2 + +
T3 sequence (looked up) 1: T1 sequence (looked up) 1 with D8K, D14R, D249K
T3 sequence (looked up) 2: T1 sequence (looked up) 2
T3 sequence (looked up) 3: T1 sequence (looked up) 3

binding result [1]: binds | binding result [2]: binds | binding result [3]: binds
B1: GST-Atg13 (351–458) (domain or fragment, Saccharomyces cerevisiae, UniProt Q06628 351-458, looked up)
chain: TRANSFEPQSWQKKVYPISRPVQPFKVGSIGSQSASRNPSNSSFFNQPPVHRPSMSSNYGPQMNIEGTSVGSTSKYSSSFGNIRRHSSVKTTENAEKVSKAVKSPLQP
notes: a TEV cleavage site follows the GST tag; source: recombinant from pGST2 vector, purified (Glutathione Sepharose 4B, HiLoad Superdex 200 16/60); not shown: GST, N-terminal, kept
